Measurements from publication PMC8652540.

Target: SARS-CoV-2 nucleocapsid protein (NCAP, N protein) (SARS-CoV-2, UniProt P0DTC9 1-419)
Experiment: EMSA
Conditions: protein: recombinant; tags: N-terminal GFP and His (N-GFP-NCAP-His, pET-28a(+)-TEV) as purified; EMSA text says only recombinant NCAP; chain copies: 2; single strand (legend says 24 bp)

UGCUUACGGUUUCGUCCGUGUUGC (ssRNA) [5'UTR leader RNA probe]: binds.
